Source: patent US20130137856A1, “PROTEIN BINDING DOMAINS STABILIZING FUNCTIONAL CONFORMATIONAL STATES OF GPCRS AND USES THEREOF” (priority 2010, published 2013)

Target: β2AR truncated after amino acid 365 (β2AR-365) having an amino terminal Flag epitope tag, native, agonist-bound or unliganded (human) (UniProt P07550)
Test: cell-based or functional assay

Gs heterotrimer
High affinity state Ki of (-)-isoproterenol, [3H]-DHA competition binding, β2AR in HDL particles + Gs (β2AR alone: 107.5): 1.07 nM | fold increase of the affinity of isoproterenol: 100 fold
